In paper PMC11573672, “Analysis of the structure and interactions of the SARS-CoV-2 ORF7b accessory protein” (Proceedings of the National Academy of Sciences of the …, 2024):

Biological target: T1, SARS-CoV-2 ORF7b accessory protein, full length, with C-terminal SA linker and Strep-tag II (SARS-CoV-2, UniProt P0DTD8 1-43)
T1 construct: ORF7b of SARS-CoV-2, 43 residues, full length; NMR samples are isotope labelled on chosen amino acids (Leu, Phe and others); Forms heterogeneous multimers; no defined number of copies; also called ORF7b-ST; ORF7b^L:F; not shown: Strep-tag II, C-terminal, kept
T1 chain: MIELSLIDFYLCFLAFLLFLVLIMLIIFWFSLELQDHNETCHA
Assay: solid-state NMR (2D hChH reverse-MIRROR, intermolecular polarization transfer)
Conditions: both partners purified

B1: E-cadherin transmembrane domain (E641-R673), purified, Leu-labelled, for solid-state NMR (domain or fragment, human, UniProt P12830-2 641-673, looked up)
chain: EAGLQIPAILGILGGILALLILILLLLLFLRRR
notes: also called E-cadTM; E-cadTM^L; source: wheat-germ cell-free synthesis, purified
B1: binds.
